The source of these data is patent US20040248178A1 (GENERAL HOSPITAL, published 2004).

The data set concerns the molecule itself. Put plainly: transmission electron microscopy after rotary shadowing (self-association).

B1: Recombinant mouse β-netrin lacking the C domain, with His tag (rβ-NΔC+His) (ligand)
chain: GLNGVAGANSRCEKACNPRMGNLALGRKLRADTMCGQNATELFCFYSENADLTCRQPKCDKCNAAHSHLAHPPSAMADSSFRFPRTWWQSAEDVHREKIQLDLEAEFYFTHLIMVFKSPRPAAMVLDRSQDFGKTWKPYKYFATNCSATFGLEDDVVKKGAICTSRYSNPFPCTGGEVIFRALSPPYDIENPYSAKVQEQLKITNLRVRLLKRQSCPCQINDLNAKPHHFMHYAVYDFIVKGSCFCNGHADQCLPVEGFRPIKAPGAFHVVHGRCMCKHNTAGSHCQHCAPLYNDRPWEAADGRTGAPNECRTCKCNGHADTCHFDVNVWEASGNRSGGVCNNCQHNTEGQHCQRCKPGFYRDLRRPFSAPDACKACSCHPVGSAILPFSSVTFCDPSNGDCPCKPGVAGPHCDRCMVGYWGFGDYGCRPCDCAGSCDPLTGDCISSNADVDWY
notes: also called rβ-NAC+His; rβ-netrin ΔC; not shown: six histidine tag followed by a thrombin cleavage site
In the case of B1, the binding result was “no binding”.
